{"source": "patent US20060122119A1", "about": "“Peptides for use in antitumor immunotherapy” (Institut Nat'l De La Sante Et De La Recherche Med., priority 2002, published 2006)", "key": {"HLA-B*3501 (human) [1]": {"biological_target": "HLA-B*3501 (human)", "settings": "remark: other sources report otherwise"}, "HLA-B*3501 (human) [2]": {"biological_target": "HLA-B*3501 (human)", "settings": "remark: other sources report otherwise", "remark": "listed apart in the source"}}, "data": [{"binder": "EVDPIGHLY", "note": "[MAGE-A3 peptide 168-176 …]", "values": [{"measurement": "Stability (half-life of the peptide on HLA-B*35)", "setting": "HLA-B*3501 (human) [1]", "result": "> 6", "unit": "h"}, {"measurement": "RA (relative affinity)", "setting": "HLA-B*3501 (human) [2]", "result": 2.3}]}]}
